Tests used:
[1] = molecular target: T1, streptavidin (UniProt P22629 P22629:25-183); test: bound streptavidin spot on slide also carrying tobramycin spot, 37 C, PBS washes; details: chain copies: 4 inferred; label: Cy3-UTP incorporated
Experimental: (§1) ˜10 μl spots of 5 mM tobramycin or 16.6 μM streptavadin in PBS were pipetted onto NHS-activated slides (Schott Nexterion Slide H). The slides were incubated at 37° C. in a humidified petri dish for ˜1 hour. The slides were washed ˜3× with ˜5 ml PBST (0.5% Tween) and ˜1× with H₂O. The remainder of the NHS-activated surface was blocked with ethanolamine. ˜5 ml of 50 mM ethanolamine-HCl was used to cover the slides and they were incubated at room temperature for ˜1 hr. The slides were washed ˜3× with ˜5 ml PBST (0.5% Tween), 1× with H₂O and dried in air.
(§2) Following incubation at 37° C. for ˜1-4 hrs, the slides were separated and the in vitro transcription mix was recovered from the slide surface using a pipette. The DNA template slide was washed ˜3× with ˜5 ml PBS, ˜1× with ˜5 ml H₂O and air dried. The RNA-binding slide was washed ˜3× with ˜5 ml PBS, ˜1×˜5 ml H₂O and air dried. Cy-labelled RNA was visualized at 532 nm for Cy3 or 639 nm for Cy5. For unlabelled RNA, the RNA-binding slide was stained by covering the slide with ˜5 ml SYBR gold (Invitrogen, Paisley, UK; 5 μl of SYBR gold in ˜25 ml PBS) for 10 minutes and visualised with a UV transilluminator.

[2] = molecular target: T1, streptavidin; test: no-aptamer control, sandwich print slide capture, 37 C, PBS washes; details: chain copies: 4 inferred; label: Cy3-UTP incorporated
Experimental: as §1, §2
(§3) Only the MicASAApt, incorporating the stretpavadin aptamer, bound to the streptavidin RNA-binding slide. […]

[3] = molecular target: T1, streptavidin; test: sandwich print slide capture, 37 C, PBS washes; details: chain copies: 4 inferred
[4] = molecular target: T1, streptavidin; test: sandwich print slide capture, T7 transcription mix, 37 C, PBS washes; details: chain copies: 4 inferred; label: Cy3-UTP incorporated
Experimental: as §1, §2, §3

T1 sequence (P22629 25-183, one chain of several): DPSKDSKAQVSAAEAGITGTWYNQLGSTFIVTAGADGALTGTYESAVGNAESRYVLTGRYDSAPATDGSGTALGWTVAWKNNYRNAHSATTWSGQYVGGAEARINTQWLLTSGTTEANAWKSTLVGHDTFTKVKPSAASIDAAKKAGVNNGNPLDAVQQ

B1: M-SSAApt RNA (ssRNA)
RNA: GAAAGACGCGCAUUUGUUAUCAUCAUCCCUGGGAAAGCGAGGCUUUCCCUGGCCACUCACGAGUGGCCUUUUACACACACACACACACACACGCAUGCAUACCGACCAGAAUCAUGCAAGUGCGUAAGAUAGUCGCGGGCCGGGAUGCAUGC
- binding result [1]: binds

B2: MicA RNA without aptamer (ssRNA)
RNA: GGGGAAAGACGCGCAUUUGUUAUCAUCAUCCCUGAAUUCAGAGAUGAAAUUUUGGCCACUCACGAGUGGCCUUUU
- binding result [2]: no binding

B3: U1SAApt RNA (ssRNA)
RNA: GGGUAUCCAUUGCACUCCGGAUGCCUUUUUUUUUUUUUUUUUUUUUGUGUGACCGACCAGAAUCAUGCAAGUGCGUAAGAUAGUCGCGGGCCGGGCACACA
- binding result ([3]; label: Cy3-UTP incorporated): binds

B4: MicASAApt RNA (ssRNA)
RNA: GGGGAAAGACGCGCAUUUGUUAUCAUCAUCCCUGAAUUCAGAGAUGAAAUUUUGGCCACUCACGAGUGGCCUUUUACACACACACACACACACACGCAUGCAUACCGACCAGAAUCAUGCAAGUGCGUAAGAUAGUCGCGGGCCGGGAUGCAUGC
- binding result [4]: binds

B5: Qrr1SAApt RNA (ssRNA)
RNA: GGGUGACCCGCAAGGGUCACCUAGCCAACUGACGUUGUUAGUGAAUAAUCAAUGUUCACAAAUAACAGCCAAUAGACUCAUUCUAUUGGCUAUUUUUUUUUUUUUUUUUUUUUUUUUUUUGUGUGACCGACCAGAAUCAUGCAAGUGCGUAAGAUAGUCGCGGGCCGGGCACACA
- binding result ([3]; label: Cy5-UTP incorporated): binds

Reference: patent publication US20140087972, “METHOD OF IMMOBILISING RNA ONTO A SURFACE” (UNIVERSITY OF PORTSMOUTH, published 2014)
